Consider one variant from IntAct's records for PubMed 22314232.

The labels stand for the following.
B1: Calnexin (Homo sapiens), P27824 (parent)
chain: MEGKWLLCMLLVLGTAIVEAHDGHDDDVIDIEDDLDDVIEEVEDSKPDTTAPPSSPKVTYKAPVPTGEVYFADSFDRGTLSGWILSKAKKDDTDDEIAKYDGKWEVEEMKESKLPGDKGLVLMSRAKHHAISAKLNKPFLFDTKPLIVQYEVNFQNGIECGGAYVKLLSKTPELNLDQFHDKTPYTIMFGPDKCGEDYKLHFIFRHKNPKTGIYEEKHAKRPDADLKTYFTDKKTHLYTLILNPDNSFEILVDQSVVNSGNLLNDMTPPVNPSREIEDPEDRKPEDWDERPKIPDPEAVKPDDWDEDAPAKIPDEEATKPEGWLDDEPEYVPDPDAEKPEDWDEDMDGEWEAPQIANPRCESAPGCGVWQRPVIDNPNYKGKWKPPMIDNPSYQGIWKPRKIPNPDFFEDLEPFRMTPFSAIGLELWSMTSDIFFDNFIICADRRIVDDWANDGWGLKKAADGAAEPGVVGQMIEAAEERPWLWVVYILTVALPVFLVILFCCSGKKQTSGMEYKKTDAPQPDVKEEEEEKEEEKDKGDEEEEGEEKLEEKQKSDAEEDGGTVSQEEEDRKPKAEEDEILNRSPRNRKPRRE

One assay covers variants of B1. The settings on record: with SEC61A1, P61619.
SEC61A1, P61619, sequence (P61619 whole entry): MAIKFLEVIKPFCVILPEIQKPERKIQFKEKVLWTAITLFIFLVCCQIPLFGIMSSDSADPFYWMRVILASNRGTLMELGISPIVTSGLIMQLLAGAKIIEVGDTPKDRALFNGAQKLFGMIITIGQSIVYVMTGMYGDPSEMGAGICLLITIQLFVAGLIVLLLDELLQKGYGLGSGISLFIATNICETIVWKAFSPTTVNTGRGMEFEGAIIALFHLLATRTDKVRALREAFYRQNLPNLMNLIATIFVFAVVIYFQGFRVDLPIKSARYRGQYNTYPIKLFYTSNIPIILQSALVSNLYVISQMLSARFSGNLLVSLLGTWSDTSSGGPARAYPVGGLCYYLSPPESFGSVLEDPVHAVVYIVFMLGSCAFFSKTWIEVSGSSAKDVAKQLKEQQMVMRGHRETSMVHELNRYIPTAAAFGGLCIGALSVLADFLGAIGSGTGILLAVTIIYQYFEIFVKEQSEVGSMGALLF
Consider MEGKWLLCMLLVLGTAIVEAHDGHDDDVIDIEDDLDDVIEEVEDSKPDTTAPPSSPKVTYKAPVPTGEVYFADSFDRGTLSGWILSKAKKDDTDDEIAKYDGKWEVEEMKESKLPGDKGLVLMSRAKHHAISAKLNKPFLFDTKPLIVQYEVNFQNGIECGGAYVKLLSKTPELNLDQFHDKTPYTIMFGPDKCGEDYKLHFIFRHKNPKTGIYEEKHAKRPDADLKTYFTDKKTHLYTLILNPDNSFEILVDQSVVNSGNLLNDMTPPVNPSREIEDPEDRKPEDWDERPKIPDPEAVKPDDWDEDAPAKIPDEEATKPEGWLDDEPEYVPDPDAEKPEDWDEDMDGEWEAPQIANPRCESAPGCGVWQRPVIDNPNYKGKWKPPMIDNPSYQGIWKPRKIPNPDFFEDLEPFRMTPFSAIGLELWSMTSDIFFDNFIICADRRIVDDWANDGWGLKKAADGAAEPGVVGQMIEAAEERPWLWVVYILTVALLVFLVILFCCSGKKQTSGMEYKKTDAPQPDVKEEEEEKEEEKDKGDEEEEGEEKLEEKQKSDAEEDGGTVSQEEEDRKPKAEEDEILNRSPRNRKPRRE [P494L], for which the “effect of a mutation on the interaction” value is “disrupting interaction”.

Variants of B1 are the subject of a further assay. The settings on record: with rl12_human RPL12, P30050.
With MEGKWLLCMLLVLGTAIVEAHDGHDDDVIDIEDDLDDVIEEVEDSKPDTTAPPSSPKVTYKAPVPTGEVYFADSFDRGTLSGWILSKAKKDDTDDEIAKYDGKWEVEEMKESKLPGDKGLVLMSRAKHHAISAKLNKPFLFDTKPLIVQYEVNFQNGIECGGAYVKLLSKTPELNLDQFHDKTPYTIMFGPDKCGEDYKLHFIFRHKNPKTGIYEEKHAKRPDADLKTYFTDKKTHLYTLILNPDNSFEILVDQSVVNSGNLLNDMTPPVNPSREIEDPEDRKPEDWDERPKIPDPEAVKPDDWDEDAPAKIPDEEATKPEGWLDDEPEYVPDPDAEKPEDWDEDMDGEWEAPQIANPRCESAPGCGVWQRPVIDNPNYKGKWKPPMIDNPSYQGIWKPRKIPNPDFFEDLEPFRMTPFSAIGLELWSMTSDIFFDNFIICADRRIVDDWANDGWGLKKAADGAAEPGVVGQMIEAAEERPWLWVVYILTVALLVFLVILFCCSGKKQTSGMEYKKTDAPQPDVKEEEEEKEEEKDKGDEEEEGEEKLEEKQKSDAEEDGGTVSQEEEDRKPKAEEDEILNRSPRNRKPRRE [P494L], the “effect of a mutation on the interaction” value is given as “disrupting interaction”.
